Where a chain is given by its changes, count along the chain named. Numbers in names are those of the source.
B1: wild-type FICD, structured luminal domain (residues 104–445) (enzyme, human, UniProt Q9BVA6 104-445, looked up)
chain: LEARAALNQALEMKRQGKREKAQKLFMHALKMDPDFVDALTEFGIFSEEDKDIIQADYLYTRALTISPYHEKALVNRDRTLPLVEEIDQRYFSIIDSKVKKVMSIPKGNSALRRVMEETYYHHIYHTVAIEGNTLTLSEIRHILETRYAVPGKSLEEQNEVIGMHAAMKYINTTLVSRIGSVTISDVLEIHRRVLGYVDPVEAGRFRTTQVLVGHHIPPHPQDVEKQMQEFVQWLNSEEAMNLHPVEFAALAHYKLVYIHPFIDGNGRTSRLLMNLILMQAGYPPITIRKEQRSDYYHVLEAANEGDVRPFIRFIAKCTETTLDTLLFATTEYSVALPEAQP
notes: human FICD, structured region, residues 104-445; The methods say His6-SUMO fusion (cleaved by Ulp1) or GST fusion (cleaved by TEV) without telling which for which protein; Purification as in Perera et al, 2019, 2021; also called WT; FICD^WT; not shown: His6-SUMO (or GST)
B2: FICD^R371S, structured luminal domain (residues 104–445) (enzyme, human, UniProt Q9BVA6 104-445, looked up)
chain: B1 chain with R268S
notes: human FICD, structured region, residues 104-445, with the patients' variant p.(Arg371Ser); Variant found homozygous in patients (NM_007076.2:c.1113G>C); also called Arg371Ser mutant FICD; FICD p.(Arg371Ser); not shown: His6-SUMO (or GST)

Biological target: the molecule itself
Experiment: SEC; analytical SEC, Agilent Bio SEC-3 HPLC column, TNT buffer (25 mM Tris pH 8.0, 150 mM NaCl, 1 mM TCEP), 25°C; proteins diluted to a range of concentrations (Fig 3B) and incubated at least 1 h at room temperature; 0.3 ml/min

Protein	stoichiometry N
B1	2
B2	2

— publication PMC9994480, “Infancy‐onset diabetes caused by de‐regulated AMPylation of the human endoplasmic reticulum chaperone BiP” (EMBO Molecular Medicine, 2023)
